B1: Cry3Bb.60 (60 kDa trypsin-truncated Cry3Bb, first 159 residues removed) (other)
chain: SKRSQDRIRELFSQAESHFRNSMPSFAVSKFEVLFLPTYAQAANTHLLLLKDAQVFGEEWGYSSEDVAEFYHRQLKLTQQYTDHCVNWYNVGLNGLRGSTYDAWVKFNRFRREMTLTVLDLIVLFPFYDIRLYSKGVKTELTRDIFTDPIFSLNTLQEYGPTFLSIENSIRKPHLFDYLQGIEFHTRLQPGYFGKDSFNYWSGNYVETRPSIGSSKTITSPFYGDKSTEPVQKLSFDGQKVYRTIANTDVAAWPNGKVYLGVTKVDFSQYDDQKNETSTQTYDSKRNNGHVSAQDSIDQLPPETTDEPLEKAYSHQLNYAECFLMQDRRGTIPFFTWTHRSVDFFNTIDAEKITQLPVVKAYALSSGASIIEGPGFTGGNLLFLKESSNSIAKFKVTLNSAALLQRYRVRIRYASTTNLRLFVQNSNNDFLVIYINKTMNKDDDLTYQTFDLATTNSNMGFSGDKNELIIGAESFVSNEKIYIDKIEFIPVQL
notes: Made by trypsin digestion of solubilized Cry3Bb, which cleaves after R159; The range counts on wild-type Cry3Bb; also called CryB2.60; Δ1-159

Experiments:
[1] = molecular target: Cry3Bb.11032 (D165G) (Bacillus thuringiensis) (UniProt Q06117); assay: cell-based or functional assay
[2] = molecular target: the molecule itself; assay: SDS-PAGE of unheated samples, Coomassie stain, self-association

Molecule	initial channel conductances when the protein is artificially incorporated into the membrane [1]	binding result [2]
Cry3Bb.11032 (D165G) (from UniProt Q06117 1-652)	16 fold	
B1		binds

— patent EP1801220A2 (Monsanto Technology, LLC, dated 2007)
